58 variants from the Human Domainome abundance scans (Beltran et al. 2025) can be followed below.

To fix the notation:
B1: Serine/threonine-protein kinase LATS1, residues 98 to 141; numbered along this chain, O95835 (parent)
chain: TSEVNPQMLQDLQAAGFDEDMVIQALQKTNNRSIEAAIEFISKM

± gives the uncertainty stated by the source.

Variants of B1 are the subject of this series. The series is described as follows: abundance fitness (aPCA) (normalised: wild type 0, dead -1); higher = more abundant; growth selection in yeast, the domain comes from the species named. To be noted: Homo sapiens.
Turning to TSEVNPQMLQDLQAAGFDEDMVIQALQKQNNRSIEAAIEFISKM, the abundance fitness is -0.563 ± 0.071.
As for TSEVNPQMLQDLQAAGFDEDMVIQALQKLNNRSIEAAIEFISKM, the abundance fitness was -0.954 ± 0.071.
Take TSEVNPQMLQDLQAAGFDEDMVIQALQKFNNRSIEAAIEFISKM: the abundance fitness is -1.09 ± 0.16.
Turning to TSEVNPQMLQDLQAAGFDEDMVIQALQKINNRSIEAAIEFISKM, the abundance fitness is -0.589 ± 0.073.
Then TSEVNPQMLQDLQAAGFDEDMVIQALQKVNNRSIEAAIEFISKM, with -0.191 ± 0.039; and TSEVNPQMLQDLQAAGFDEDMVIQALQKKNNRSIEAAIEFISKM, with -0.806 ± 0.1; and TSEVNPQMLQDLQAAGFDEDMVIQALQKENNRSIEAAIEFISKM, with -0.529 ± 0.046.
On to TSEVNPQMLQDLQAAGFDEDMVIQALQKDNNRSIEAAIEFISKM, for which the abundance fitness was -0.902 ± 0.29.
On to TSEVNPQMLQDLQAAGFDEDMVIQALQKSNNRSIEAAIEFISKM, for which the abundance fitness is -0.463 ± 0.04.
Then TSEVNPQMLQDLQAAGFDEDMVIQALQKGNNRSIEAAIEFISKM, with -0.527 ± 0.033.
Then TSEVNPQMLQDLQAAGFDEDMVIQALQKWNNRSIEAAIEFISKM, with -1.09 ± 0.083; and TSEVNPQMLQDLQAAGFDEDMVIQALQKPNNRSIEAAIEFISKM, with -0.524 ± 0.1; and TSEVNPQMLQDLQAAGFDEDMVIQALQKRNNRSIEAAIEFISKM, with -0.715 ± 0.041.
In the case of TSEVNPQMLQDLQAAGFDEDMVIQALQKNNNRSIEAAIEFISKM, the abundance fitness is -0.414 ± 0.1.
Consider TSEVNPQMLQDLQAAGFDEDMVIQALQKANNRSIEAAIEFISKM, for which the abundance fitness was -0.646 ± 0.047.
As for TSEVNPQMLQDLQAAGFDEDMVIQALQKCNNRSIEAAIEFISKM, the abundance fitness was -0.375 ± 0.043.
Consider TSEVNPQMLQDLQAAGFDEDMVIQALQKMNNRSIEAAIEFISKM, for which the abundance fitness is -0.919 ± 0.1.
As for TSEVNPQMLQDLQAAGFDEDMVIQALQKTPNRSIEAAIEFISKM, the abundance fitness is -0.529 ± 0.061.
Regarding TSEVNPQMLQDLQAAGFDEDMVIQALQKTANRSIEAAIEFISKM, the abundance fitness is -0.193 ± 0.033.
Regarding TSEVNPQMLQDLQAAGFDEDMVIQALQKTHNRSIEAAIEFISKM, the abundance fitness was -0.206 ± 0.24.
Regarding TSEVNPQMLQDLQAAGFDEDMVIQALQKTSNRSIEAAIEFISKM, the abundance fitness was -0.107 ± 0.042.
On to TSEVNPQMLQDLQAAGFDEDMVIQALQKTMNRSIEAAIEFISKM, for which the abundance fitness was -0.553 ± 0.065.
Consider TSEVNPQMLQDLQAAGFDEDMVIQALQKTFNRSIEAAIEFISKM, for which the abundance fitness was -1.05 ± 0.15.
For the variant TSEVNPQMLQDLQAAGFDEDMVIQALQKTTNRSIEAAIEFISKM, the abundance fitness was -0.533 ± 0.055.
As for TSEVNPQMLQDLQAAGFDEDMVIQALQKTENRSIEAAIEFISKM, the abundance fitness was 0.015 ± 0.04.
Consider TSEVNPQMLQDLQAAGFDEDMVIQALQKTQNRSIEAAIEFISKM, for which the abundance fitness is -0.055 ± 0.047.
For TSEVNPQMLQDLQAAGFDEDMVIQALQKTKNRSIEAAIEFISKM, the abundance fitness was -0.021 ± 0.042.
For TSEVNPQMLQDLQAAGFDEDMVIQALQKTDNRSIEAAIEFISKM, the abundance fitness is -0.093 ± 0.055.
For TSEVNPQMLQDLQAAGFDEDMVIQALQKTLNRSIEAAIEFISKM, the abundance fitness is -1.14 ± 0.097.
With TSEVNPQMLQDLQAAGFDEDMVIQALQKTVNRSIEAAIEFISKM, the abundance fitness is -1.1 ± 0.069.
In the case of TSEVNPQMLQDLQAAGFDEDMVIQALQKTWNRSIEAAIEFISKM, the abundance fitness was -1.07 ± 0.086.
As to TSEVNPQMLQDLQAAGFDEDMVIQALQKTRNRSIEAAIEFISKM, the abundance fitness was -0.103 ± 0.033.
Consider TSEVNPQMLQDLQAAGFDEDMVIQALQKTGNRSIEAAIEFISKM, for which the abundance fitness was found to be 0.045 ± 0.032.
Regarding TSEVNPQMLQDLQAAGFDEDMVIQALQKTNNRSIGAAIEFISKM, the abundance fitness is -0.173 ± 0.031.
Then TSEVNPQMLQDLQAAGFDEDMVIQALQKTNNRSISAAIEFISKM, with -0.115 ± 0.042; and TSEVNPQMLQDLQAAGFDEDMVIQALQKTNNRSIFAAIEFISKM, with -0.468 ± 0.12; and TSEVNPQMLQDLQAAGFDEDMVIQALQKTNNRSICAAIEFISKM, with -0.485 ± 0.066.
Consider TSEVNPQMLQDLQAAGFDEDMVIQALQKTNNRSIQAAIEFISKM, for which the abundance fitness is -0.141 ± 0.041.
On to TSEVNPQMLQDLQAAGFDEDMVIQALQKTNNRSIKAAIEFISKM, for which the abundance fitness was -0.169 ± 0.047.
Take TSEVNPQMLQDLQAAGFDEDMVIQALQKTNNRSITAAIEFISKM: the abundance fitness was -0.158 ± 0.053.
Then TSEVNPQMLQDLQAAGFDEDMVIQALQKTNNRSIMAAIEFISKM, with -0.307 ± 0.24.
As to TSEVNPQMLQDLQAAGFDEDMVIQALQKTNNRSINAAIEFISKM, the abundance fitness was -0.204 ± 0.06.
TSEVNPQMLQDLQAAGFDEDMVIQALQKTNNRSIDAAIEFISKM: the abundance fitness came out at 0.005 ± 0.054.
As for TSEVNPQMLQDLQAAGFDEDMVIQALQKTNNRSIRAAIEFISKM, the abundance fitness was -0.263 ± 0.035.
As for TSEVNPQMLQDLQAAGFDEDMVIQALQKTNNRSILAAIEFISKM, the abundance fitness was -0.541 ± 0.059.
TSEVNPQMLQDLQAAGFDEDMVIQALQKTNNRSIVAAIEFISKM: the abundance fitness was -0.468 ± 0.04.
For the variant TSEVNPQMLQDLQAAGFDEDMVIQALQKTNNRSIPAAIEFISKM, the abundance fitness was -0.164 ± 0.055.
As for TSEVNPQMLQDLQAAGFDEDMVIQALQKTNNRSIHAAIEFISKM, the abundance fitness is -0.151 ± 0.089.
With TSEVNPQMLQDLQAAGFDEDMVIQALQKTNNRSIWAAIEFISKM, the abundance fitness was -0.473 ± 0.049.
TSEVNPQMLQDLQAAGFDEDMVIQALQKTNNRSNEAAIEFISKM: the abundance fitness was -0.123 ± 0.22.
On to TSEVNPQMLQDLQAAGFDEDMVIQALQKTNNRSFEAAIEFISKM, for which the abundance fitness is -0.192 ± 0.074.
As for TSEVNPQMLQDLQAAGFDEDMVIQALQKTNNRSWEAAIEFISKM, the abundance fitness was -0.505 ± 0.06.
TSEVNPQMLQDLQAAGFDEDMVIQALQKTNNRSGEAAIEFISKM: the abundance fitness is -0.266 ± 0.033.
In the case of TSEVNPQMLQDLQAAGFDEDMVIQALQKTNNRSSEAAIEFISKM, the abundance fitness is -0.189 ± 0.044.
With TSEVNPQMLQDLQAAGFDEDMVIQALQKTNNRSTEAAIEFISKM, the abundance fitness worked out at 0.046 ± 0.044.
Consider TSEVNPQMLQDLQAAGFDEDMVIQALQKTNNRSEEAAIEFISKM, for which the abundance fitness is -0.068 ± 0.045.
Take TSEVNPQMLQDLQAAGFDEDMVIQALQKTNNRSYEAAIEFISKM: the abundance fitness was -0.468 ± 0.15.
As for TSEVNPQMLQDLQAAGFDEDMVIQALQKTNNRSDEAAIEFISKM, the abundance fitness is -0.257 ± 0.071.
